Substitutions are numbered along the chain they refer to. Names and notes keep the numbering of the source.
Columns and labels:
[1] = biological target: KEAP1 (wild-type full-length), His-tagged (human) (UniProt Q14145); test: AlphaScreen; 9.6 nM FLAG-NRF2, 150 nM His-KEAP1; Rep 1; control for I28V
[2] = biological target: KEAP1 (wild-type full-length), His-tagged (human) (UniProt Q14145); test: AlphaScreen; FLAG-NRF2 wt isoform 1 4.8 nM, His-KEAP1 150 nM; Rep 1; positive control for Q75R
[3] = biological target: KEAP1 (wild-type full-length), His-tagged (human) (UniProt Q14145); test: AlphaScreen; 1228.8 nM FLAG-NRF2, 150 nM His-KEAP1; Rep 1; control for I86V
[4] = biological target: KEAP1 (wild-type full-length), His-tagged (human) (UniProt Q14145); test: AlphaScreen; FLAG-NRF2 wt isoform 1 9.6 nM, His-KEAP1 150 nM; Rep 2; positive control for Q75R
[5] = biological target: KEAP1 (wild-type full-length), His-tagged (human) (UniProt Q14145); test: AlphaScreen; 19.2 nM FLAG-NRF2, 150 nM His-KEAP1; Rep 1; control for I28V
[6] = biological target: KEAP1 (wild-type full-length), His-tagged (human) (UniProt Q14145); test: AlphaScreen; FLAG-NRF2 wt isoform 1 614.4 nM, His-KEAP1 150 nM; Rep 2; positive control for Q75R
[7] = biological target: KEAP1 (wild-type full-length), His-tagged (human) (UniProt Q14145); test: AlphaScreen; 4.8 nM FLAG-NRF2, 150 nM His-KEAP1; signal against NRF2 only; control for I28V
[8] = biological target: KEAP1 (wild-type full-length), His-tagged (human) (UniProt Q14145); test: AlphaScreen; FLAG-NRF2 Q75R 9.6 nM, His-KEAP1 150 nM; Repeat 1
[9] = biological target: KEAP1 (wild-type full-length), His-tagged (human) (UniProt Q14145); test: AlphaScreen; 4.8 nM FLAG-NRF2, 150 nM His-KEAP1; Rep 2
[10] = biological target: KEAP1 (wild-type full-length), His-tagged (human) (UniProt Q14145); test: AlphaScreen; FLAG-NRF2 I86V 307.2 nM, His-KEAP1 150 nM; Rep 2

Chain of KEAP1 (wild-type full-length), His-tagged (human) (Q14145 2-624 limits assumed): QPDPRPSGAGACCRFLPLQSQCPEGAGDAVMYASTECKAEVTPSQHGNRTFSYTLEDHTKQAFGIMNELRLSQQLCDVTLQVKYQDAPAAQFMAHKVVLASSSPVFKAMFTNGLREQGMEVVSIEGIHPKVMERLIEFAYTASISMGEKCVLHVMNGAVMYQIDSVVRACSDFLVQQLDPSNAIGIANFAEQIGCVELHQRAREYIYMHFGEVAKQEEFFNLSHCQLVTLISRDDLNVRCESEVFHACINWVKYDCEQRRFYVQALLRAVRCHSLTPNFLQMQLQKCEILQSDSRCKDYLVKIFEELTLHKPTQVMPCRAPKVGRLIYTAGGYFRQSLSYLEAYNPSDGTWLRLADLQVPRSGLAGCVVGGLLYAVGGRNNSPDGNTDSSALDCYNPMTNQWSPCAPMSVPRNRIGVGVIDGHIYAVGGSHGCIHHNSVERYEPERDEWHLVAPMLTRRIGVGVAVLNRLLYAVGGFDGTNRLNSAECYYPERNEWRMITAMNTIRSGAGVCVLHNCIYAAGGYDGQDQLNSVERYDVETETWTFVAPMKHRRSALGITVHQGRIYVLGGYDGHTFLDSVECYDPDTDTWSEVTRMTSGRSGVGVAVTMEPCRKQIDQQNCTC

B1: NRF2 isoform 1 (wild-type full-length), FLAG-tagged (protein)
chain: MMDLELPPPGLPSQQDMDLIDILWRQDIDLGVSREVFDFSQRRKEYELEKQKKLEKERQEQLQKEQEKAFFAQLQLDEETGEFLPIQPAQHIQSETSGSANYSQVAHIPKSDALYFDDCMQLLAQTFPFVDDNEVSSATFQSLVPDIPGHIESPVFIATNQAQSPETSVAQVAPVDLDGMQQDIEQVWEELLSIPELQCLNIENDKLVETTMVPSPEAKLTEVDNYHFYSSIPSMEKEVGNCSPHFLNAFEDSFSSILSTEDPNQLTVNSLNSDATVNTDFGDEFYSAFIAEPSISNSMPSPATLSHSLSELLNGPIDVSDLSLCKAFNQNHPESTAEFNDSDSGISLNTSPSVASPEHSVESSSYGDTLLGLSDSEVEELDSAPGSVKQNGPKTPVHSSGDMVQPLSPSQGQSTHVHDAQCENTPEKELPVSPGHRKTPFTKDKHSSRLEAHLTRDELRAKALHIPFPVEKIINLPVVDFNEMMSKEQFNEAQLALIRDIRRRGKNKVAAQNCRKRKLENIVELEQDLDHLKDEKEKLLKEKGENDKSLHLLKKQLSTLYLEVFSMLRDEDGKPYSPSEYSLQQTRDGNVFLVPKSKKPDVKKN
- A-counts [1]: 1590 A-counts
- A-counts (NRF2 plus KEAP1) [2]: 725 A-counts
- A-counts [3]: 2930 A-counts
- A-counts (NRF2 plus KEAP1) [4]: 900 A-counts
- A-counts [5]: 1980 A-counts
- A-counts (NRF2 plus KEAP1) [6]: 1710 A-counts
- S/N [7]: 3.2

B2: NRF2 isoform 1 (Q75R full-length), FLAG-tagged (protein)
chain: B1 chain with Q75R
- A-counts (NRF2 plus KEAP1) [8]: 1180 A-counts

B3: NRF2 isoform 1 (I28V full-length), FLAG-tagged (protein)
chain: B1 chain with I28V
- A-counts [9]: 1050 A-counts

B4: NRF2 isoform 1 (I86V full-length), FLAG-tagged (protein)
chain: B1 chain with I86V
- A-counts (NRF2 plus KEAP1) [10]: 2120 A-counts

Reference: patent US20250352667A1
